# From PMC3045457, “Evolution of Acetylcholinesterase and Butyrylcholinesterase in the Vertebrates: An Atypical Butyrylcholinesterase from the Medaka Oryzias latipes” (PLoS ONE, 2011)
# Where a name gives a salt, the structure may show the parent alone. Read-outs that look alike come from different tables or passages of the source.
# T1: atypical BChE from O. latipes (Oryzias latipes, UniProt D5L5S0)
# T1 construct: GPI-anchored amphiphilic dimer (G2a)
# T1 sequence (D5L5S0 26-589): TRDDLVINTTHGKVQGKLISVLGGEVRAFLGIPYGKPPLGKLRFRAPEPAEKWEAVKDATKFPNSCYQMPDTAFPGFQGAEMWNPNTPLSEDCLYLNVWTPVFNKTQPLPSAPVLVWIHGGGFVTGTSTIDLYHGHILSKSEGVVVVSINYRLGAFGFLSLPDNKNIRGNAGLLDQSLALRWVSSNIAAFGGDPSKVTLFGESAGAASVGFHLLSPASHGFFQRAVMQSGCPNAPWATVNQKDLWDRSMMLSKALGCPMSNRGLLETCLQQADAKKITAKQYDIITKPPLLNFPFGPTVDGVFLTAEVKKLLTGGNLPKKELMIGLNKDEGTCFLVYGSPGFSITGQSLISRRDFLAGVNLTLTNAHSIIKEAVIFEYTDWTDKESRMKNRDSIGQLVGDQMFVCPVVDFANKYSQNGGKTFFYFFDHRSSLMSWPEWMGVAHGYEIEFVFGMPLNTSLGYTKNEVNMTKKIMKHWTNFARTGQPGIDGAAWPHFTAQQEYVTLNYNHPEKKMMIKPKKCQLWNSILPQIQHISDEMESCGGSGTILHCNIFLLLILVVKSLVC
# How the values were obtained:
# [1] = molecular target: T1, atypical BChE from O. latipes; assay: Ellman assay, COS-7 extract, three-parameter logistic fit; type: biochemical
# Description: Ellman assay, COS-7 extract, three-parameter logistic fit on atypical BChE from O. latipes
# [2] = substrate: CC(=O)SCC[N+](C)(C)C; assay: Ellman assay, COS-7 extract, fit with substrate inhibition (Km, Kss, b); type: biochemical, Oryzias latipes; settings: 100 mM NaHPO4 pH 7, 0.3 mM DTNB, 167 mM NaCl, 258 µM Triton X-100
# Description: (§1) Ellman assay, COS-7 extract, fit with substrate inhibition (Km, Kss, b) on atypical BChE from O. latipes
# [3] = substrate: CCC(=O)SCC[N+](C)(C)C; assay: as above; type: biochemical, Oryzias latipes; settings: 100 mM NaHPO4 pH 7, 0.3 mM DTNB, 167 mM NaCl, 258 µM Triton X-100
# Description: as §1
# [4] = substrate: CCCC(=O)SCC[N+](C)(C)C; assay: as above; type: biochemical, Oryzias latipes; settings: 100 mM NaHPO4 pH 7, 0.3 mM DTNB, 167 mM NaCl, 258 µM Triton X-100
# Description: as §1
molecule,measurement,setting,value
"C=CC[N+](C)(C)c1ccc(CCC(=O)CCc2ccc([N+](C)(C)CC=C)cc2)cc1 [BW284c51, [4-[5-[4-(dimethyl-prop-2-enyl-ammonio)phenyl]-3-oxo-pentyl]phenyl]-dimethyl-prop-2-enyl-azanium dibromide]",IC50,[1]; read-out: IC50 M,480 µM
"CC(C)NP(=O)(NC(C)C)OP(=O)(NC(C)C)NC(C)C [iso-OMPA, N-[bis(propan-2-ylamino)phosphoryloxy-(propan-2-ylamino)phosphoryl]propan-2-amine]",IC50,[1]; read-out: IC50 M,4580 µM
"CNC(=O)Oc1ccc2c(c1)[C@]1(C)CCN(C)[C@@H]1N2C [physostigmine, (3aS-cis)-1,2,3,3a,8,8a-hexahydro-1,3a,8-trimethylpyrrolo[2,3-b]indol-5-ol methylcarbamate]",IC50,[1],0.0585 µM
"CCN(CC)C(C)CN1c2ccccc2Sc2ccccc21 (stereo not shown) [ethopropazine, 10-(2-diethylaminopropyl) phenothiazine hydrochloride]",IC50,[1]; read-out: IC50 M,0.898 µM
"atypical BChE from O. latipes (Oryzias latipes) (protein, GPI-anchored amphiphilic dimer (G2a)) TRDDLVINTTHGKVQGKLISVLGGEVRAFLGIPYGKPPLGKLRFRAPEPAEKWEAVKDATKFPNSCYQMPDTAFPGFQGAEMWNPNTPLSEDCLYLNVWTPVFNKTQPLPSAPVLVWIHGGGFVTGTSTIDLYHGHILSKSEGVVVVSINYRLGAFGFLSLPDNKNIRGNAGLLDQSLALRWVSSNIAAFGGDPSKVTLFGESAGAASVGFHLLSPASHGFFQRAVMQSGCPNAPWATVNQKDLWDRSMMLSKALGCPMSNRGLLETCLQQADAKKITAKQYDIITKPPLLNFPFGPTVDGVFLTAEVKKLLTGGNLPKKELMIGLNKDEGTCFLVYGSPGFSITGQSLISRRDFLAGVNLTLTNAHSIIKEAVIFEYTDWTDKESRMKNRDSIGQLVGDQMFVCPVVDFANKYSQNGGKTFFYFFDHRSSLMSWPEWMGVAHGYEIEFVFGMPLNTSLGYTKNEVNMTKKIMKHWTNFARTGQPGIDGAAWPHFTAQQEYVTLNYNHPEKKMMIKPKKCQLWNSILPQIQHISDEMESCGGSGTILHCNIFLLLILVVKSLVC",Km,[2],270 ± 18 µM
same,kcat,[2],460 ± 18.3 s⁻¹
same,kcat/Km,[2],1.72e+06 ± 83300 M⁻¹ s⁻¹
same,Km,[3],156 ± 15 µM
same,kcat,[3],512 ± 40 s⁻¹
same,kcat/Km,[3],3.33e+06 ± 83300 M⁻¹ s⁻¹
same,Km,[4],72 ± 6 µM
same,kcat,[4],117 ± 5 s⁻¹
same,kcat/Km,[4],1.65e+06 ± 117000 M⁻¹ s⁻¹
